From paper PMC5869385 come the findings set out here.

The assay addresses Torpedo muscle-type α1_(2)β1γδ nicotinic acetylcholine receptor (Torpedo marmorata (endogenous in electric organ)) (UniProt P02711). The assay is described as follows: radioligand binding.

For the substance “α-cobratoxin from Naja kaouthia (from UniProt P01391 1-71) (natural protein)”, the Ki (in general, the equilibrium dissociation constant of an inhibitor or competing ligand from its target) was 0.397 nM.
